Experimental findings from a protein production outcome set (Wang et al. 2014) are described below.

A short description of this series: label from the status in PepcDB records.
For “MCIQKVIEDKLSSALKPTFLELVDKSCGCGTSFDAVIVSNNFEDKKLLDRHRLVNTILKEELQNIHAFSMKCHTPLEYDKLKSK”, the protein production entry was “not failed”. Next, “MCKNSQYLHLPDEIPQQLMLLWESSDEVWGFKDLDSHYLYANNPFIELLNFPPEFCIKGLLDDELPHPSFAKFSSQFREQELLAAITKKRVSSIEMHYFGREQKLQPYLFDKFPLLNSKKECLGIIF”: “failed”; “MCLGMAGEHMAPNSKHLSLHMPVDFIDALAQAESIDEILKVVATWFMEMFVADRASITFPVNDSHLRVVALEGNRVIDVDAPVPIHGTMVGRVFSRGQAEICDDLAASTDLDCLILASRGLGSCLDAPLRSGRDCYGTINVGRRDRNGFTLADMRKIEALAMWIATLIRVHRQVERLTHLSRTDPLTQIMNRRAFTESFQTRRLEGERRRAEVGTGLGFAVVDIDHFKQINDTYGHDVGDVVLAFVGKMMNEFFRESDCVARFGGEEFCVLMQDVDEGGMQRLLERFRVALGDCVVTHSAGTVSITASIGAVLVKTSVAGIDRAFRSADLALYKAKADGRNRVRIAPSAEQSHAGNPANRLCYPG”: “failed”.

On to “MCPKNASYYGNRAATLMMLGRFREALGDAQQSVRLDDSFVRGHLREGKCHLSLGNAMAACRSFQRALELDHKNAQAQQEFKNANAVMEYEKIAETDFEKRDFRKVVFCMDRALEFAPACHRFKILKAECLAMLGRYPEAQSVASDILRMDSTNADALYVRGLCLYYEDCIEKAVQFFVQALRMAPDHEKACIACRNAKALKAKKEDGNKAFKEGNYKLAYELYTEALGIDPNNIKTNAKLYCNRGTVNSKLRKLDDAIEDCTNAVKLDDTYIKAYLRRAQCYMDTEQYEEAVRDYEKVYQTEKTKEHKQLLKNAQLELKKSKRKDYYKILGVDKNASEDEIKKAYRKRALMHHPDRHSGASAEVQKEEEKKFKEVGEAFTILSDPKKKTRYDSGQDLDEEGMNMGDFDPNNIFKAFFGGPGGFSFEASGPGNFFFQFG”, for which the protein production entry is “failed”. The result for “MCSMASHDLSVFLEEFGATVNLTLPGIVSEKERLLLKLLMEGMSVTEISQYRNRSAKTISHQKKQLYEKLGIQSDITFWRDIFFQYHPQVISGTGNKNNFYIPDNRCHHIVTPEAISLALENHEFKPWIQPVFCAQTGVLTGCEVLVRWEHPQTGIIPPDQFIPLAESSGLIVIMTRQLMKQTADILMPVKHLLPDNFHIGINVSAGCFLAAGFEKECLNLVKKLGNDKIKLVLELTERNPIPVTPEARAIFDSLHQHNITFALDDFGTGYATYRYLQAFPVDFIKIDKSFVQMAGVDEISGHIVDNIVELARKPGLSIVAEGVETQEQADLMIGKGVHFLQGYLYSPPVPGNKFISEWVMKAGG” reads “failed”; that for “MCWPAPPRPSRRSSNGSPLLWQPGGYDRPPPPCRSLPHVCQNFVVRGCLMTISGGTFDPSICEMEPIATPGAIQPHGALMTARADSGRVAHASVNLGEILGLPAASVLGAPIGEVIGRVNEILLREARRSGSETPETIGSFRRSDGQLLHLHAFQSGDYMCLDIEPVRDEDGRLPPGARQSVIETFSSAMTQVELCELAVHGLQLVLGYDRVMAYRFGADGHGEVIAERRRQDLEPYLGLHYPASDIPQIARALYLRQRVGAIADACYRPVPLLGHPELDDGKPLDLTHSSLRSVSPVHLDYMQNMNTAASLTIGLADGDRLWGMLVCHNTTPRIAGPEWRAAAGMIGQVVSLLLSRLGEVENAAETLARQSTLSTLVERLSTGDTLAAAFVAADQLILDLVGASAAVVRLAGQELHFGRTPPVDAMQKVLDSLGRPSPLEVLSLDDVTLRHPELPELLAAGSGILLLPLTSGDGDLIAWFRPEHVQTITWGGNPAEHGTWNPATQRMRPRASFDAWKETVTGRSLPWTSAERNCARELGEAIAAEMAQRTRAELARLRHYDPLTGLANRSYLQERLAQDGQSAAALLFIDLDRFKAVNDSMGHGVGDGLLIEVARSLVATVRPHDLVVRLGGDEFVVLCHRLDAAGIVSLAERLRQVLEQPFEVAGRKCHISASIGIAMADSIGDLDLVRAADIAMYAAKKNGGNRGELFRPSLYEETTQLVELDNDMRGAIESEQFHLVYQPIFALNPETERLVGFEALLRWDHPLHGALQPGIFIPLAERLGHIHAMGNWVLRRAILQLQAFRSAGPELDLKMNVNVSPLQLARPDFLARLADLLAQVPDLPRHALCLEITETSLSDEAVSEALISIRALGVRIAIDDFGTGFSSLACLRRLPVDVAKLDRAFLGGGHTAAQDHRFFAAVTGLVHAADLKVVQEGIETLDQLALVRAAGADFAQGFHLAAPLSIAAALGLIAASRKE”, “failed”.
